Values of other authors, collected in PMC6092819.

Target: Kv1.3 (Homo sapiens) (UniProt P22001)
Chain of UniProt P22001 (P22001 whole entry): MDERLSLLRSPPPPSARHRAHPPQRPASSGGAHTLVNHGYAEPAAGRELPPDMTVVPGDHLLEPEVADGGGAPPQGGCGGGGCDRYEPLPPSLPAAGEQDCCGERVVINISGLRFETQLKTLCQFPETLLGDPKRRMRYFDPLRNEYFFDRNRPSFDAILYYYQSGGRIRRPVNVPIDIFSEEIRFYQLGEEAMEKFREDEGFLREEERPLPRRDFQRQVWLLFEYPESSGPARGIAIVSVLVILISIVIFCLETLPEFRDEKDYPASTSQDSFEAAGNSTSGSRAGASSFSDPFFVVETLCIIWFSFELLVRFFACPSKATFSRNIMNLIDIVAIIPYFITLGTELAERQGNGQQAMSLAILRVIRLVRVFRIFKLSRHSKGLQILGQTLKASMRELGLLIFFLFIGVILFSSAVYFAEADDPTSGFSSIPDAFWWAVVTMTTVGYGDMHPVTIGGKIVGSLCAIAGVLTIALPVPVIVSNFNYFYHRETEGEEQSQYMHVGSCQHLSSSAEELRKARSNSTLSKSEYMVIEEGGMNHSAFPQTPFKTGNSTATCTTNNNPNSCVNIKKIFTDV

ShK (from UniProt P29187)
Kd: 0.01 nM
